# Measurements from patent US20260263521A1 (AIMED BIO, published 2026).
# T1: human CD200R1 expressed on cells (Jurkat-CD200R1, U937-CD200R1, HH cells) (human, UniProt Q8TD46 25-348)
# T1 construct: whole, on cells; also called HH (CRL-2105); cell surface-expressed CD200R1
# T1 sequence (looked up): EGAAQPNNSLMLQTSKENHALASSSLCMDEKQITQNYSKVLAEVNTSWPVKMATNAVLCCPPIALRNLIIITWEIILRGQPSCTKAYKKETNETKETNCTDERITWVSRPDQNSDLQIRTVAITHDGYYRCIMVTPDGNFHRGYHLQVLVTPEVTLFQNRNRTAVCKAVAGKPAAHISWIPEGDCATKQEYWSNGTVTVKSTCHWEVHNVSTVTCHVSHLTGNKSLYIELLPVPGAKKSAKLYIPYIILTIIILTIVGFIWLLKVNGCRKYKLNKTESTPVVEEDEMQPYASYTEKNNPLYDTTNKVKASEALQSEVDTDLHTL
# T2: human CD200R1 recombinant protein (construct not stated) (human, UniProt Q8TD46 27-266, limits assumed)
# T2 sequence (looked up): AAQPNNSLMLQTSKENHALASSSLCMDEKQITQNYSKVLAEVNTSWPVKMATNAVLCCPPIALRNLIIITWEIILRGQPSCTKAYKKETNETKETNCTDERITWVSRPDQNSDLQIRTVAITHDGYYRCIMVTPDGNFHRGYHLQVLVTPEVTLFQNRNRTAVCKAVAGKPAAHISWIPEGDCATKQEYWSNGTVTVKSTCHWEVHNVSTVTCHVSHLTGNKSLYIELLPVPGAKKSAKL
# B1: P001009 (IgG) (antibody, V domains shown)
# VH: EVQLLESGGGLVQPGGSLRLSCAASGFTFSSYDMSWVRQAPGKGLEWVSWISHGGGSIYYADSVKGRFTISRDNSKNTLYLQMNSLRAEDTAVYYCARDAPAYSAPLFDYWGQGTLVTVSS
# VL: QSVLTQPPSASGTPGQRVTISCSGSSSNIGNNAVNWYQQLPGTAPKLLIYYDSNRPSGVPDRFSGSKSGTSASLAISGLRSEDEADYYCAAWDDSLSGYVFGGGTKLTVL
# notes: also called P001009 WT; P001009 wt
# What was measured:
# [1] = biological target: T1, human CD200R1 expressed on cells …; experiment: flow cytometry, Jurkat-CD200R cells
# Experimental: Two additional wells were treated with 10 μl of mouse IgG1K (BD, #555751) and 5 μl of commercial CD200R1 antibody (Biolegend, #329308) to determine CD200R1 expression on the cell line surface for cell quality control.
# The antibodies were serially diluted 10-fold from a maximum concentration of 100 nM to 10 nM, 1 nM, […], and were added to the pre-seeded cells. After reaction for 1 hour at 4° C., the cells were treated with Alexa-647 goat anti-human IgG (H+L) cross-adsorbed secondary antibody (Invitrogen, #A21445) and incubated for an additional 30 minutes at 4° C. After washing twice with FACS buffer, flow cytometry was performed using a Novocyte Flow cytometer (Agilent). Using GraphPad Prism software, the EC₅₀ was determined using a nonlinear graph model of log (agonist) vs. response-variable slope, as shown in Table 32.
# [2] = biological target: T2, human CD200R1 recombinant protein …; experiment: ELISA on human CD200R1, normalized absorbance at 450 nm, 0.0192-300 nM; panel 'Human CD200R1'
# [3] = biological target: T1, human CD200R1 expressed on cells …; experiment: cell-based or functional assay
binder,measurement,setting,value
B1,EC50,[1],0.22 nM
same,EC50 (read off the curve),[2],~2 nM
same,"EC50 (nM), degree of signal transduction by the Dok2 protein",[3],1.57 nM
